Values quoted from earlier work in paper PMC5394133 (Clinical Drug Investigation, 2017).
Like-named read-outs stand apart in the source and are kept apart here.

Conditions: for Maximum concentration, mean / Total exposure, mean: total insulin concentration

Substance	Maximum concentration, ratio thigh/abdomen (0.2 U/kg s.c.)	Maximum concentration, ratio upper arm/abdomen (0.2 U/kg s.c.)	Total exposure, ratio thigh/abdomen (0.2 U/kg s.c.)	Total exposure, ratio upper arm/abdomen (0.2 U/kg s.c.)	Maximum concentration, mean (0.2 U/kg s.c., abdomen)	Total exposure, mean (0.2 U/kg s.c., abdomen)	Maximum concentration, mean (0.2 U/kg s.c., thigh)	Total exposure, mean (0.2 U/kg s.c., thigh)	Maximum concentration, mean (0.2 U/kg s.c., upper arm)	Total exposure, mean (0.2 U/kg s.c., upper arm)	Maximum concentration, ratio thigh/abdomen (s.c.)	Maximum concentration, ratio upper arm/abdomen (s.c.)	Total exposure, ratio thigh/abdomen (s.c.)	Total exposure, ratio upper arm/abdomen (s.c.)	early exposure within 1 h after administration, lower for the thigh than for the abdomen (s.c.)	early exposure within 1 h after administration, lower for the upper arm than for the abdomen (s.c.)
Insulin aspart	84%	101%	97%	105%	501 pmol/L	1.3 nM·h	422 pmol/L	1.265 nM·h	506 pmol/L	1.361 nM·h	–	–	–	–	–	–
Insulin glulisine	–	–	–	–	–	–	–	–	–	–	68%	82%	93%	97%	~ 40%	~ 20%
Insulin lispro	78%	67%	92%	95%	589 pmol/L	1.388 nM·h	458 pmol/L	1.277 nM·h	395 pmol/L	1.313 nM·h	–	–	–	–	–	–
